Results from article PMC4303305 (Biochemistry, 2014).
Residue numbers refer to the chain shown, from its start. Names and notes keep the numbering of the source. Where two headings read alike, the source gives them in different places.

B1: NP1(K1A) (natural protein, Rhodnius prolixus, UniProt Q26239 24-207, looked up)
chain: ACTKNALAQTGFNKDKYFNGDVWYVTDYLDLEPDDVPKRYCAALAAGTASGKLKEALYHYDPKTQDTFYDVSELQEESPGKYTANFKKVEKNGNVKVDVTSGNYYTFTVMYADDSSALIHTCLHKGNKDLGDLYAVLNRNKDTNAGDKVKGAVTAASLKFSDFISTKDNKCEYDNVSLKSLLTK
B2: native N-terminal NP1 with C-terminal His6 tag (natural protein, Rhodnius prolixus, UniProt Q26239 24-207, looked up)
chain: B1 chain with A1K
B3: NP4(K38Q/R39Q/K125Q) (natural protein, Rhodnius prolixus, UniProt Q94734 22-205, looked up)
chain: ACTKNAIAQTGFNKDKYFNGDVWYVTDYLDLEPDDVPQQYCAALAAGTASGKLKEALYHYDPKTQDTFYDVSELQVESLGKYTANFKKVDKNGNVKVAVTAGNYYTFTVMYADDSSALIHTCLHQGNKDLGDLYAVLNRNKDAAAGDKVKSAVSAATLEFSKFISTKENNCAYDNDSLKSLLTK

Legend:
SEC [1] = molecular target: the molecule itself; test: SEC
SEC [2] = molecular target: the molecule itself; test: SEC; remark: listed apart in the source

Protein | stoichiometry N (SEC [1]) | stoichiometry N (SEC [2])
B1 | 2 | 
B2 | 2 | 
B3 |  | 2
